Biological target: CMP-Pse5Ac7Ac synthetase PseF from Aeromonas caviae (Aeromonas caviae)
Test: SEC-MALS; 100 uL of AcPseF at 4 mg/mL on a Superdex S200 column in 20 mM Tris pH 7.8, 50 mM NaCl, 2 mM MgCl2; Wyatt HELEOS-II light scattering and rEX refractive index detectors; BSA as standard

## CMP-Pse5Ac7Ac synthetase PseF from Aeromonas caviae (enzyme)
  percent present as homodimer: > 99%
  stoichiometry N: 2

From article PMC7910423
